Results published in paper PMC6981927, “In Situ Proteolysis Condition-Induced Crystallization of the XcpVWX Complex in Different Lattices” (International Journal of Molecular Sciences, 2020).

B1: XcpW (28–237), soluble truncation of the minor pseudopilin XcpW (domain or fragment)
chain: RMFDSVMQTDQATRVQEQRMRELVRAMGALERDLTQAVERPVRDELGDNRGAFLSEGENDQIVEFTRGGWRNPLGQARSRLQRVRWSLSGETLERRYWLVLDRAQDSKPRVQQVLDGVTALSWRFLDKEHNWQGHWPTDEGSEEERLESLPLAVEMTLEHRHYGKLVRVWRLLDPPLKQDQPQGQPGGENGENGEGGVPQPPEGMPGAPE
notes: XcpW, minor pseudopilin of the type II secretion system, Pseudomonas aeruginosa PAO1, residues 28-237; Tags removed by TEV protease; residues left from the TEV site and the cloning site may remain at the N-terminus; In the crystals the complex was under in situ chymotrypsin proteolysis; source: E. coli (BL21 (DE3); results say codon plus cells), purified (Ni-NTA, TEV cleavage, second Ni-NTA, SEC …)

Columns and labels:
[1] = target: T1, XcpX (29–313), soluble truncation of the minor pseudopilin XcpX (Pseudomonas aeruginosa PAO1, UniProt Q00518 29-313); assay: SEC; three purified tag-free pseudopilins mixed at a molar ratio of 1.5:1:1 (XcpV:XcpW:XcpX), 4 °C overnight; Superdex 75, 25 mM HEPES pH 7.0, 150 mM NaCl, 1 mM CaCl2; peak fractions analysed by SDS-PAGE; conditions: both partners purified
T1 construct: XcpX, minor pseudopilin of the type II secretion system, Pseudomonas aeruginosa PAO1, residues 29-313; Tags removed by TEV protease; residues left from the TEV site and the cloning site may remain at the N-terminus; In the crystals the complex was under in situ chymotrypsin proteolysis; some loops are missing in the model of 6UTU; source: E. coli (BL21 (DE3); results say codon plus cells), …
T1 sequence: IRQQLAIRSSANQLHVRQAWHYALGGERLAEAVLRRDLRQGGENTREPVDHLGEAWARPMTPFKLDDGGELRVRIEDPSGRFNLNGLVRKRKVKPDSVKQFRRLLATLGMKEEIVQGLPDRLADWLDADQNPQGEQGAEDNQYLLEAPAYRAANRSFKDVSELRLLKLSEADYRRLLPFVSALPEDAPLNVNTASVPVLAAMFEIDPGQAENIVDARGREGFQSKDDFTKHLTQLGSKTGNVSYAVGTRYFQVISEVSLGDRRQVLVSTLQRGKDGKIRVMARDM

[2] = target: B1; assay: as above; conditions: both partners purified

Row | Binder | stoichiometry N [1] | stoichiometry N [2]
1 | B1 | ~1 | 
2 | XcpV (28–129), soluble truncation of the minor pseudopilin XcpV (domain or fragment, XcpV, minor pseudopilin of the type II secretion system, Pseudomonas aeruginosa PAO1, residues 28-129; Tags removed by TEV protease; residues left from the TEV site and the cloning site may remain at the N-terminus; In the crystals the complex was under in situ chymotrypsin proteolysis; loops 59-66 and 103-113 are missing in the model of 6UTU; source: E. coli (BL21 (DE3)); results say codon plus …) SASARSLQNASRLEDKTLAMWIADNRLNELQLEQTPPSSGRNQGELEFAGRRWEWRTQVDSTAEQDMRRVIVWVAAKPLGRERGSIEERAAARLVGFLGSQP | ~1 | ~1
